# Molecular target: papain (UniProt P00784)
# Sequence of UniProt P00784 (P00784 134-345): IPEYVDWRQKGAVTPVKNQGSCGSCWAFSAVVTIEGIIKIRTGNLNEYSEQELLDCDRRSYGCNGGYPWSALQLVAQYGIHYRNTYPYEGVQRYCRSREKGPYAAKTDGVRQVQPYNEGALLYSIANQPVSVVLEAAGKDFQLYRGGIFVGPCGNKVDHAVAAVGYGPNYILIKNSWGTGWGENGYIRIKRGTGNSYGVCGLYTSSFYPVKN
substance,measurement,value
His-SSPbP53 (natural protein),"degradation of fluorescein-labeled casein by papain (100 μg/mL) with His-SSPbP53 at 100 and 500 nM, 1 h at room temperature (% reduction of activity)",> 50

# Source: publication PMC8451464
